Results from the supplement of paper PMC9170038.

System: MS2 coat protein
Assay: apparent KD of MS2 coat protein; designed switch direction (-1 OFF switch, 1 ON switch): -1; higher = weaker reporter binding
Summary of the method: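 The apparent KD reported per design is the median over clusters of curve fits to normalised cluster fluorescence. The RNA switches were transcribed on Illumina chips by stalled E. coli RNA polymerase. SNAP-549-labelled MS2 coat protein was titrated from 0.7 or 1.5 nM, doubling up to 3 µM, in Tris-HCl pH 7.5 buffer containing KCl, MgCl2, BSA, DTT, tRNA and Tween-20, with no input, 200 uM small-molecule ligand, or an oligonucleotide input.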

[1] = Eterna round: R95, input ligand: FMN 200 uM
[2] = Eterna round: R95, input ligand: microRNA oligo, concentration not stated
[3] = Eterna round: R95, input ligand: none
[4] = input ligand: microRNA oligo, concentration not stated

Sequence	apparent KD of MS2 coat protein [1] [nM]	apparent KD of MS2 coat protein [2] [nM]	apparent KD of MS2 coat protein [3] [nM]	apparent KD of MS2 coat protein (input ligand: FMN 200 uM) [nM]	apparent KD of MS2 coat protein [4] [nM]	apparent KD of MS2 coat protein (input ligand: none) [nM]
UAAUAUAGUGUGAGGAUAUGCUGGUCGAUAGAUCAGCAGAAGGCACAUGAGGAUCACCCAUGUAAUAUAUUAAA [Mat - Exclusion 4 - JL Mod - D36] (puzzle: Brourd's mod of Exclusion 4)	64.6	30.7	42.9	–	–	–
UACAUGAGGAUCACCCAUGUUUUGUCGUGUAUGGUAUUUAUCUAGGAUAUCAAGUUAUUAAUUUAUGAGAAGGAGAAUAUUAAU [JMF's solution 32] (Eterna round: R96, puzzle: Exclusion NG 3)	–	–	–	43.9	27.4	42.1
UACAUGAGGAUCACCCAUGUUUUGUCGUGUAUGGUAUUUAUCUAGGAUAUCAAUAUAUUUAUUUAUGAGAAGGAGAAUAUUAAU [JMF's solution 11] (Eterna round: R96, puzzle: Exclusion NG 3)	–	–	–	–	28.5	–
UACAUGAGGAUCACCCAUGUUUUGUCGUGUAUGGUAUUUAUCUAGGAUAUCAAUGUAUGUAUUUAUGAGAAGGAGAAUAUUAAU [JMF's solution 43] (Eterna round: R96, puzzle: Exclusion NG 3)	–	–	–	47.2	27.4	40.9
UACAUGAGGAUCACCCAUGUUUUGUCGUGUAUGGUAUUUAUCUAGGAUAUCAAUUGAUUUAUUCAUGAGAAGGAGAAUAUUAAU [JMF's solution 64] (Eterna round: R96, puzzle: Exclusion NG 3)	–	–	–	34.1	31.4	39.8
UACAUGAGGAUCACCCAUGUUUUGUCGUGUAUGGUAUUUAUCUAGGAUAUCAAUUGUUUUAUUUAUGAGAAGGAGAAUAUUAAU [JMF's solution 56] (Eterna round: R96, puzzle: Exclusion NG 3)	–	–	–	–	24.8	–
UACAUGAGGAUCACCCAUGUUUUGUCGUGUAUGGUAUUUAUCUAGGAUAUCAAUUUAUUAAUUUAUGAGAAGGAGAAUAUUAAU [JMF's solution 20] (Eterna round: R96, puzzle: Exclusion NG 3)	–	–	–	34.4	25.8	43.3
UACAUGAGGAUCACCCAUGUUUUGUCGUGUAUGGUAUUUAUCUAGGAUAUCAAUUUGUUUAUUUAUGAGAAGGAGAAUAUUAAU [JMF's solution 16] (Eterna round: R96, puzzle: Exclusion NG 3)	–	–	–	39.2	29.8	41
UACAUGAGGAUCACCCAUGUUUUGUCGUGUAUGGUAUUUAUCUAGGAUAUCAUGUUAUUUAUUUAUGAGAAGGAGAAUAUUAAU [JMF's solution 24] (Eterna round: R96, puzzle: Exclusion NG 3)	–	–	–	32.6	29.1	32.5
UACAUGAGGAUCACCCAUGUUUUGUCGUGUAUGGUAUUUAUCUAGGAUAUCAUUUUAUUUAGCUAUGAGAAGGAGAAUAUUAAU [JMF's solution 94] (Eterna round: R96, puzzle: Exclusion NG 3)	–	–	–	32.3	20.5	31.2
UACCGGCGGACCGAGGCUUUUUGCUCGUCUUAUACUACAACAUGAGGAUCACCCAUGUGGUGGUGGUCCGUUGUAGU [JL ViennaUCT Bitein mod 5] (puzzle: Sensor v3, turn-off variant 2)	21.7	6.09	16.2	–	–	–
UAGAAACAUGAGGAUCACCCAUGUGAGGAUAUGAAAAAGAAAAGAAAAGAAAGAAGAAUCAGAAGGCACAAAGA [salish99-ex1_r3_083] (puzzle: Exclusion 1)	33.6	25.9	23.6	–	–	–
UAGAAAGGUAAGGAUAUCCAUGUGAAAUAAAGAGGAGAAGGUACCACAUGAGGAUCACCCAUGUGGCUCUCAAA [jl-ex6-4.54 Nando mod] (Eterna round: R97, puzzle: Exclusion 6)	–	–	–	13.8	–	14.7
UAGAUACAUGAGGAUCACCCAUGUGAGGAUAUGAGAAUGAAAUGAAAUGAAUGAAGAAUCAGAAGGCACAAAGG [JL-ex1-4.31 salish99 mod] (Eterna round: R97, puzzle: Exclusion 1)	–	–	–	238	–	54
UAGAUGGCUCAGGAUAUUUGCCAACUAACCCGCAAAGAAGGGAGCACAUGAGGAUCACCCAUGUGAUCGAACAA [Xeortibeza] (puzzle: Exclusion 6)	114	22.6	26.1	–	–	–
UAGGUGUGAGGAUAUGGUAAAGAUAAGAUGAUAAAAGAACUCCAGAAGGCACAUGAGGAUCACCCAUGUAGAUG [Mat - Exclusion 4 - Mod of JL - D34] (puzzle: Exclusion 4)	62.9	22.8	25.8	–	–	–
UAGUAGCAAGGAUAUACAGAGGAGAGGAAAGCAAGAGGAGGACAUGAGGAUCACCCAUGUAGAAGGUGCAGAGA [JR_Exclu2_Sub020] (puzzle: Exclusion 2)	74.6	73.9	66.6	–	–	–

Sequence	apparent KD of MS2 coat protein [1] [nM]	apparent KD of MS2 coat protein [2] [nM]	apparent KD of MS2 coat protein [3] [nM]	apparent KD of MS2 coat protein (input ligand: FMN 200 uM) [nM]	apparent KD of MS2 coat protein [4] [nM]	apparent KD of MS2 coat protein (input ligand: none) [nM]
UAGUUAGCGUGUGGCACAUACAUGAGGAUCACCCAUGUUAGCUUAUAUAUUGCUCGUCUUAUAACAACACUUAACUU [Mod JX-Electric-eye6] (Eterna round: R97, puzzle: Sensor, turn-off variant 1)	–	–	–	18.7	–	19
UAGUUAUUCACAGGAUAUCGCCUCUUAUUACAUGAGGAUCACCCAUGUUUACUUAGUUACAUGUUCGAGAAGGGUGUAGCCGUU [JR_ExcNG2_Sub044] (Eterna round: R96, puzzle: Exclusion NG 2)	–	–	–	–	301	–
UAUAACCAAGGAUAUACAUGAGGAUCACCCAUGUAAUAUAAUAUAAUAUAAAUAAAAUGUAGAAGGUGGGAUAU (Eterna round: R97, puzzle: Exclusion 3)	–	–	–	26.6	–	31.4
UAUAUACAUGAGGAUCACCCAUGUAAGGAUAUGCUUUAUUAUUAUUAUUAUUAUUAUUGCAGAAGGUACAUUAU [LRO-Excl01-05] (Eterna round: R97, puzzle: Exclusion 1)	–	–	–	38.4	–	33.8
UAUAUAUAGUAAGGAUAUGUAUAUGUUUUAUAAACAGAAGGUACUGACAUGAGGAUCACCCAUGUUUUAGUGUGGGCAUGUAGA [JMF's solution 54] (Eterna round: R96, puzzle: Exclusion NG 1)	–	–	–	–	44.5	–
UAUAUAUAGUAAGGAUAUGUAUUAAUAUUAUAAACAGAAGGUACUGACAUGAGGAUCACCCAUGUUUUAGUGUGGGCAUGUAGA [JMF's solution 77] (Eterna round: R96, puzzle: Exclusion NG 1)	–	–	–	–	66.8	–
UAUAUGUCAGGAUAUUAGUAGUAAAUGAAUAAAAUUAUUACUGAGAAGGGACAUGAGGAUCACCCAUGUGUCUC [Mat - Exclusion 4 - Eli Mod - D26] (Eterna round: R97, puzzle: Exclusion 4)	–	–	–	577	–	175
UAUCGGGACUGAGGAUAUUCGUUCGAACACGAAGAAGAAGGUAGUGUCAGGGACAUGAGGAUCACCCAUGUGAUUUCAGUCCCA [JL ViennaUCT Erinle mod 4] (Eterna round: R96, puzzle: Exclusion NG 1)	–	–	–	133	96.8	139
UAUGUAUACGUCAGGAUAUACGGUCCAGAUGGUAAGUAGAAGGGACAUGAGGAUCACCCAUGUAUAAUAAUAAU [AK 1] (puzzle: Brourd's mod of Exclusion 4)	20.2	18	22.5	–	–	–
UAUGUGUCAGGAUAUUAGUAGUAAAUAAAUAAAAUUAUUACUGAGAAGGGACAUGAGGAUCACCCAUGUGCCUU [Salish 062 v31] (Eterna round: R97, puzzle: Exclusion 4)	–	–	–	23.2	–	12.3
UAUUACCUAGGAUAUACAUGAGGAUCACCCAUGUCACGGGUCAACUUGUCCUACGCGUGUAGAAGGAGGGACCC [JL Ceriza mod 7] (puzzle: Exclusion 3)	–	19.7	–	–	–	–
UAUUACGCAAGCAGGUCCCACAUGAGGAUCACCCAUGUGCUCGUCUUAUAACGAUCUGUGGGAAAACCUACGGAUCG [Elimod 19 - Jieux - Sensor, turn-off variant 1] (Eterna round: R97, puzzle: Sensor, turn-off variant 1)	–	–	–	45.8	–	48.4
UAUUAGCAAGCAAAUGGGUACAUGAGGAUCACCCAUGUGCUCGUCUUAUAAGGUACUGUGACGAAAGUCACGGUCCC [mod--Eli7] (Eterna round: R97, puzzle: Sensor, turn-off variant 1)	–	–	–	23	–	24
UAUUAGCAAGCGAGAUCCCACAUGAGGAUCACCCAUGUGCUCGUCUUAUAAAAGACUGUGACGAGAGUCACGGUCAC [Mat - Sensor, turn-off var - Eli Mod - D23] (Eterna round: R97, puzzle: Sensor, turn-off variant 1)	–	–	–	13.7	–	12
UAUUAGCAAGUGAGAUCCCACAUGAGGAUCACCCAUGUGCUCGUCUUUUAACGUACUGUGAGGAAACUCACGGUACG [Sensor-V1 #82] (Eterna round: R97, puzzle: Sensor, turn-off variant 1)	–	–	–	62.1	–	67.1
UAUUAUAAUGUAGGAUAUCUGCACGUGUAGUGCAGAGAAGGACAUGAGGAUCACCCAUGUAUAGUAGCUUCGGCUACAUUAUUU [ENG1-B3] (Eterna round: R96, puzzle: Exclusion NG 1)	–	–	–	90.5	61.8	71.2
